Assay results reported in doi:10.1101/2019.12.23.887380v2.

Substrate: O=[N+]([O-])c1ccc(O[C@@H]2O[C@H](CO)[C@@H](O)[C@H](O)[C@H]2O)cc1
Assay: purified protein
[1] = WT-1 preparation, absorbance followed 1 h
[2] = tested with WT-1, error exceeds value, poorly determined fit

B1: β-glucosidase B (BglB) (Paenibacillus polymyxa) (protein)
chain: MSENTFIFPATFMWGTSTSSYQIEGGTDEGGRTPSIWDTFCQIPGKVIGGDCGDVACDHFHHFKEDVQLMKQLGFLHYRFSVAWPRIMPAAGIINEEGLLFYEHLLDEIELAGLIPMLTLYHWDLPQWIEDEGGWTQRETIQHFKTYASVIMDRFGERINWWNTINEPYCASILGYGTGEHAPGHENWREAFTAAHHILMCHGIASNLHKEKGLTGKIGITLNMEHVDAASERPEDVAAAIRRDGFINRWFAEPLFNGKYPEDMVEWYGTYLNGLDFVQPGDMELIQQPGDFLGINYYTRSIIRSTNDASLLQVEQVHMEEPVTDMGWEIHPESFYKLLTRIEKDFSKGLPILITENGAAMRDELVNGQIEDTGRHGYIEEHLKACHRFIEEGGQLKGYFVWSFLDNFEWAWGYSKRFGIVHINYETQERTPKQSALWFKQMMAKNGF
Km [1]: 5.4 ± 0.88 mM
kcat [1]: 0.6198 ± 0.056 s⁻¹

B2: β-glucosidase B (BglB) (Paenibacillus polymyxa; Y169M) (protein)
chain: MSENTFIFPATFMWGTSTSSYQIEGGTDEGGRTPSIWDTFCQIPGKVIGGDCGDVACDHFHHFKEDVQLMKQLGFLHYRFSVAWPRIMPAAGIINEEGLLFYEHLLDEIELAGLIPMLTLYHWDLPQWIEDEGGWTQRETIQHFKTYASVIMDRFGERINWWNTINEPMCASILGYGTGEHAPGHENWREAFTAAHHILMCHGIASNLHKEKGLTGKIGITLNMEHVDAASERPEDVAAAIRRDGFINRWFAEPLFNGKYPEDMVEWYGTYLNGLDFVQPGDMELIQQPGDFLGINYYTRSIIRSTNDASLLQVEQVHMEEPVTDMGWEIHPESFYKLLTRIEKDFSKGLPILITENGAAMRDELVNGQIEDTGRHGYIEEHLKACHRFIEEGGQLKGYFVWSFLDNFEWAWGYSKRFGIVHINYETQERTPKQSALWFKQMMAKNGF
Km (tested with WT-2): 22.2 ± 5.53 mM
kcat (tested with WT-2): 0.8428 ± 0.2272 s⁻¹

B3: β-glucosidase B (BglB) (Paenibacillus polymyxa; W438D) (protein)
chain: MSENTFIFPATFMWGTSTSSYQIEGGTDEGGRTPSIWDTFCQIPGKVIGGDCGDVACDHFHHFKEDVQLMKQLGFLHYRFSVAWPRIMPAAGIINEEGLLFYEHLLDEIELAGLIPMLTLYHWDLPQWIEDEGGWTQRETIQHFKTYASVIMDRFGERINWWNTINEPYCASILGYGTGEHAPGHENWREAFTAAHHILMCHGIASNLHKEKGLTGKIGITLNMEHVDAASERPEDVAAAIRRDGFINRWFAEPLFNGKYPEDMVEWYGTYLNGLDFVQPGDMELIQQPGDFLGINYYTRSIIRSTNDASLLQVEQVHMEEPVTDMGWEIHPESFYKLLTRIEKDFSKGLPILITENGAAMRDELVNGQIEDTGRHGYIEEHLKACHRFIEEGGQLKGYFVWSFLDNFEWAWGYSKRFGIVHINYETQERTPKQSALDFKQMMAKNGF
Km (tested with WT-2): 10.28 ± 2.14 mM
kcat (tested with WT-2): 0.1765 ± 0.0275 s⁻¹

B4: β-glucosidase B (BglB) (Paenibacillus polymyxa; Q22T) (protein)
chain: MSENTFIFPATFMWGTSTSSYTIEGGTDEGGRTPSIWDTFCQIPGKVIGGDCGDVACDHFHHFKEDVQLMKQLGFLHYRFSVAWPRIMPAAGIINEEGLLFYEHLLDEIELAGLIPMLTLYHWDLPQWIEDEGGWTQRETIQHFKTYASVIMDRFGERINWWNTINEPYCASILGYGTGEHAPGHENWREAFTAAHHILMCHGIASNLHKEKGLTGKIGITLNMEHVDAASERPEDVAAAIRRDGFINRWFAEPLFNGKYPEDMVEWYGTYLNGLDFVQPGDMELIQQPGDFLGINYYTRSIIRSTNDASLLQVEQVHMEEPVTDMGWEIHPESFYKLLTRIEKDFSKGLPILITENGAAMRDELVNGQIEDTGRHGYIEEHLKACHRFIEEGGQLKGYFVWSFLDNFEWAWGYSKRFGIVHINYETQERTPKQSALWFKQMMAKNGF
Km [2]: 99.02 ± 247.88 mM
kcat [2]: 0.00433 ± 0.001 s⁻¹

B5: β-glucosidase B (BglB) (Paenibacillus polymyxa; W123R) (protein)
chain: MSENTFIFPATFMWGTSTSSYQIEGGTDEGGRTPSIWDTFCQIPGKVIGGDCGDVACDHFHHFKEDVQLMKQLGFLHYRFSVAWPRIMPAAGIINEEGLLFYEHLLDEIELAGLIPMLTLYHRDLPQWIEDEGGWTQRETIQHFKTYASVIMDRFGERINWWNTINEPYCASILGYGTGEHAPGHENWREAFTAAHHILMCHGIASNLHKEKGLTGKIGITLNMEHVDAASERPEDVAAAIRRDGFINRWFAEPLFNGKYPEDMVEWYGTYLNGLDFVQPGDMELIQQPGDFLGINYYTRSIIRSTNDASLLQVEQVHMEEPVTDMGWEIHPESFYKLLTRIEKDFSKGLPILITENGAAMRDELVNGQIEDTGRHGYIEEHLKACHRFIEEGGQLKGYFVWSFLDNFEWAWGYSKRFGIVHINYETQERTPKQSALWFKQMMAKNGF
Km [2]: 49.63 ± 324.02 mM
kcat [2]: 0.00025 ± 0.0013 s⁻¹

B6: β-glucosidase B (BglB) (Paenibacillus polymyxa; V401A) (protein)
chain: MSENTFIFPATFMWGTSTSSYQIEGGTDEGGRTPSIWDTFCQIPGKVIGGDCGDVACDHFHHFKEDVQLMKQLGFLHYRFSVAWPRIMPAAGIINEEGLLFYEHLLDEIELAGLIPMLTLYHWDLPQWIEDEGGWTQRETIQHFKTYASVIMDRFGERINWWNTINEPYCASILGYGTGEHAPGHENWREAFTAAHHILMCHGIASNLHKEKGLTGKIGITLNMEHVDAASERPEDVAAAIRRDGFINRWFAEPLFNGKYPEDMVEWYGTYLNGLDFVQPGDMELIQQPGDFLGINYYTRSIIRSTNDASLLQVEQVHMEEPVTDMGWEIHPESFYKLLTRIEKDFSKGLPILITENGAAMRDELVNGQIEDTGRHGYIEEHLKACHRFIEEGGQLKGYFAWSFLDNFEWAWGYSKRFGIVHINYETQERTPKQSALWFKQMMAKNGF
Km (tested with WT-2): 8.27 ± 1.24 mM
kcat (tested with WT-2): 0.341 ± 0.0215 s⁻¹

B7: β-glucosidase B (BglB) (Paenibacillus polymyxa; F155G) (protein)
chain: MSENTFIFPATFMWGTSTSSYQIEGGTDEGGRTPSIWDTFCQIPGKVIGGDCGDVACDHFHHFKEDVQLMKQLGFLHYRFSVAWPRIMPAAGIINEEGLLFYEHLLDEIELAGLIPMLTLYHWDLPQWIEDEGGWTQRETIQHFKTYASVIMDRGGERINWWNTINEPYCASILGYGTGEHAPGHENWREAFTAAHHILMCHGIASNLHKEKGLTGKIGITLNMEHVDAASERPEDVAAAIRRDGFINRWFAEPLFNGKYPEDMVEWYGTYLNGLDFVQPGDMELIQQPGDFLGINYYTRSIIRSTNDASLLQVEQVHMEEPVTDMGWEIHPESFYKLLTRIEKDFSKGLPILITENGAAMRDELVNGQIEDTGRHGYIEEHLKACHRFIEEGGQLKGYFVWSFLDNFEWAWGYSKRFGIVHINYETQERTPKQSALWFKQMMAKNGF
Km (tested with WT-1): 6.10 mM
kcat (tested with WT-1): 0.3093 s⁻¹
